Laboratory results taken from publication doi:10.1101/2025.03.16.643581.
pKd: −log10 of the molar value.

Target: CDKL5-PBM peptide, WT (FITC-labeled) (human)
Assay: fluorescence polarisation

pKd | Substance
4.39 | PSD95 PDZ2 domain (domain or fragment)
4.88 | PSD95 PDZ3 domain (domain or fragment)
3.84 | PSD95 PDZ1 domain (domain or fragment)
